Results taken from the nanobody polyreactivity screen of Harvey et al. (2022).

Test: yeast display, Sf9 membrane polyspecificity reagent, FACS + sequencing; frameworks hold sequencing errors
Method in brief: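 After 36–48 hours of galactose induction, yeast (Saccharomyces cerevisiae BJ5465) displaying a synthetic nanobody library were stained at 4 °C for 1 hour with 10% biotinylated, detergent-solubilized Sf9 membrane reagent. Streptavidin microbeads enriched the stained cells before FACS sorting into low and high (top ~1%) gates on anti-HA and streptavidin fluorescence. Each clone's polyreactivity label reflects its gate of origin.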
In the case of “QVQLVESGGGLVKAGGSLRLSCAASGFISSSYAMGWYRQAPGKERELVAVITRSGGSTYYADSVKGRFTISRDNAKNTVYLQMNSLKPEDTGVYYCNTDARSKKYIFDFDYWGQGTQVTVSS”, the “polyreactivity (PSR sort gate)” value is reported as “high polyreactivity”. In the case of “QVQLVESGGGLVKAGGSLRLSCAASGFTIVYYAMGWYIQAPGKERELVAAISATGGRTYYADSVKGRFTISRDNAKNTVYLQMNSLKPEDTAVYYCATRRRVLYGYDYWGQGTQVTVSS”, the “polyreactivity (PSR sort gate)” value is reported as “high polyreactivity”. With “QVQLVESGGGLVKAGGSLRLSCAASGLTFAINTMGWYRQSRGKERELVAAITGSGGSTYYADSVKGRFTISRDNAKNTVYLQMNSLKPEDSAVYYCAAELLYVQGYAMDYWGQGTQVTVSS” the “polyreactivity (PSR sort gate)” value was “low polyreactivity”. In the case of “QVQLVESGGGLVKAGGSLRLSCAASGRIFGYYAMGLDRQAPGQERELFAAITWSGGRTYYADSVKGRFTISRDNAKNTVYLQMKSLKPEDTAVYYCAAKTLGQQRKFDYWGQGTQVTVSS”, the “polyreactivity (PSR sort gate)” value is reported as “high polyreactivity”. For “QVQLVESGGGLVKAGGSLRLSCAASGRTFLRNAMGWYRPAPGKERELVATITRGGSTYYADSVKGRFTISRDNAKNTVYLQMNSLKPEDTAVYYCAKDITGGFRRPDYGYWGQGTQVTVSS”, the “polyreactivity (PSR sort gate)” value was “low polyreactivity”. For “QVQLVESGGGLVKAGGSLRLSCAASGRTFSSNAMGWNRQAPGKERELVAAISSSGAGTYYADSVKGRFTISRDNAKNTVYFQMTILKPEDSAVYYCAARANSYHSFTSPYDYWGQGTQVTVSS”, the “polyreactivity (PSR sort gate)” value was “low polyreactivity”. In the case of “QVQLVESGGGLVKAGGSLRLSCAASGSIFPDNAMGWYRQAPGKERELVAAISEGSTSTYYADSVKGRFTISRDNAKYTVYLQMNSLKPEDTAVYYCAADYDTGYEYWGQGTQVTVSS”, the “polyreactivity (PSR sort gate)” value is reported as “low polyreactivity”. With “QVQLVESGGGLVKAGGSLRLSCAASGSIFPYNAMGWYRQAPGKERELVATISSGGSTNYADSVKGRFTISRDNAKNTVYLQMNSMKPEDTAVYYCAADVSVFYYAPNYWGDIEYGYWGQGTQVTVSS” the “polyreactivity (PSR sort gate)” value was “low polyreactivity”. In the case of “QVQLVESGGGLVKAGGSLRLSCAASGSIIKRYAMGWYRQARGKERELVAAITQSGGRTYYADSVKGRFTISRDNAKNTVYLQMNSLKPEDTAVYYCNAVRWYLYDYWGQGTQVTVSS”, the “polyreactivity (PSR sort gate)” value is reported as “high polyreactivity”. In the case of “QVQLVESGGGLVKAGGSLRLSCAASGSIITIYAMGWYRQAPGKERDWVATITGGGGSTYYADSVKGRFTISRDNAKNTVYFKMNSLKPEETAVYYCAADSPGWSYTSRSYDYWGQGTQVTVSS”, the “polyreactivity (PSR sort gate)” value is reported as “low polyreactivity”. With “QVQLVESGGGLVKAGGSLRLSCGASGSIFDFYVMGWYRQAPGKERELVGAISSGGSTYYADSVKGRFTISRDNAKHTVYVQMNSLKPADTAVYYCAAYPEYVSGAWYDYWGQGTQVTVSS” the “polyreactivity (PSR sort gate)” value was “low polyreactivity”. In the case of “QVQLVESGGGLVKAGGSLRLSSAASGRILYGNAMGGYRQAPGKERELVAANTRRGGSTYYADSVKGRFTISRDNAKNTVSLQMNSLKPEDTAVYYCAASRYTSYYKDGCYAYYYWGQGTQVTVSS”, the “polyreactivity (PSR sort gate)” value is reported as “high polyreactivity”. For “QVQLVESGGGLVKEGGSLRLSCAASGNTIRVNAMGWYRQAPGKERELVAAISFSGGRTYYADSVKGRFTISRDNAKNTVYFQMNSLKPEDTGVYYCAALRRYPRPFIYGYWGQVTQVTVSS”, the “polyreactivity (PSR sort gate)” value was “low polyreactivity”. With “QVQLVESGGGLVKEGGSLRLSCAASGRIFGPYAMGWYRQAPGKERELVAVITNSGSTNYADSVKGRFTISRDNAKNSVYLQMNCLKPEDTAVYYCNRFEGGAYGSNFDYWGQGTQVTVSS” the “polyreactivity (PSR sort gate)” value was “high polyreactivity”. For “QVQLVESGGGLVLAGASLRLSCAPSGFIFVRYAMGWYRAAPGKERELVAAISSGGSTKYADSVKGRFTISRDNAKNTVYLQMNSLKPEDTAVYYCAADATPGRGVDYWGQGTQVTVSS”, the “polyreactivity (PSR sort gate)” value was “high polyreactivity”. For “QVQLVESGGGLVLAGGSLRLSCAASGFIFDIYAMGCYRQAPGKERELVASITWDDGSTYYADSVKGRFTISRDNAKNTVYLQMNSLNPEDTAVYYCAADFEAGGYSLDYWGHGTQVTVSS”, the “polyreactivity (PSR sort gate)” value was “low polyreactivity”. In the case of “QVQLVESGGGLVLAGGSLRLSCAASGFILLYYAMGWYREATGKERELVAAISWTGGRTYYADSVKGRFTISRDNAKNTVYLQMNRLKPEDTAVYYCNTFKFFCRKYGYWGQGTQVTVSS”, the “polyreactivity (PSR sort gate)” value is reported as “low polyreactivity”. With “QVQLVESGGGLVLAGGSLRLSCAASGIIFYRNAMGWYRQAPGKERELVAAITSSGGRTYYADSVKGRFTISRDNAKNTVYLQMNSLKPEDTAVYYCAATRMYWKIFYGDGDYWGQGTQVTVST” the “polyreactivity (PSR sort gate)” value was “high polyreactivity”. With “QVQLVESGGGLVLAGGSLRLSCAASGIIFYYYTMGWYRQAPGKERELVAWSGGNTNYADSVKGRFTISRDNAKNTVYLQMNSLIPEDSAVYYCNALAIWSDDWDQWISYADDYWGQGTQVTVSS” the “polyreactivity (PSR sort gate)” value was “low polyreactivity”. For “QVQLVESGGGLVLAGGSLRLSCAASGLIFAVYAMGWYRQAPGKERELVAGISASAASTYYADSVKGRFTISRDNAKNTVYLQMNSLKPEDTAVYYCAAGFYRRGKYDYWGQGTQVTVSS”, the “polyreactivity (PSR sort gate)” value was “high polyreactivity”. With “QVQLVESGGGLVLAGGSLRLSCAASGRTFGYYTMGWYRQAPGKERELVAGISSAGSTNYADSVKGRFTLSRDYAKNTVYLQMNSLKPEDTAVYYCAARYQFYRYDSTYYYCGQGTQVTVSS” the “polyreactivity (PSR sort gate)” value was “high polyreactivity”. With “QVQLVESGGGLVLAGGSLRLSCAASGSIFDDNAMGWYIQAPGKERELVAANTVSTDTTYYADSVKGRFTISRDIAKNTVSLLMNSLKPEDTAVYYCAAEGPGYGPTGDFYWYTYYYWGQGTQVTVSS” the “polyreactivity (PSR sort gate)” value was “low polyreactivity”. For “QVQLVESGGGLVLAGGSLRLSCAASGSIFGPYAMGWYRQAPGKERELVAAIRSGGSTNYADSVKGRFTISRDNAKNTVYLQMNSLKPEDNAVYYCAAEYWGYPYDYWGQGTQVTVSS”, the “polyreactivity (PSR sort gate)” value was “low polyreactivity”. With “QVQLVESGGGLVLAGGSLRLSCAASGSIFPLYAMGWYRQAPGKERELVAAITGTSSTYADSVKGRFTISRDNAKNTVYLQMNSLKPEDTAVYYCARVGWSWPRREKYNYWGQGTQVTVSS” the “polyreactivity (PSR sort gate)” value was “high polyreactivity”. For “QVQLVESGGGLVLAGGSLRLSCAASGSTFYAHAMGWYRQARGKERELVAAITSGGSTNYADSVKGRFTISRDNAKNTVNLQINSLKPEDTAVYYCATPVNRERHAEDYWGQGTQVTVSS”, the “polyreactivity (PSR sort gate)” value was “low polyreactivity”. With “QVQLVESGGGLVLPGGRLRLSCAASGGTFSTYAIASYRQGPGKERELVAAISSRGTSTYYADSVKGRFTISRDNAKNSVYLQMNSLKPEDTAVYYCAAVGVKQFLGGNPFDYWGQGTQVTVSS” the “polyreactivity (PSR sort gate)” value was “high polyreactivity”. For “QVQLVESGGGLVMAGGRLRLSCAASGSTFGYYAMGWYRQAPGKERELVAVITTRVGSTYYADSVKGRFTFSRDNAKNTVYLQMNSLKPEDTAVYYCNASGRTRSYSGSFSKHYYWGQGTQVTVSS”, the “polyreactivity (PSR sort gate)” value was “high polyreactivity”. In the case of “QVQLVESGGGLVMAVGSLRLSCAASGSTFAGNAMGWYRQAPGKERELVAAISIVGSTSYADSVKGRFTISRDNAKITFYLQMNSLKPEDTAVYDCAAEWVTSYLNYYHWGQGTQVTVSS”, the “polyreactivity (PSR sort gate)” value is reported as “low polyreactivity”. With “QVQLVESGGGLVNAGGSLRLSCAASGITLVVYGMGWYRQAPGKETELVAAMTSGGRTYYADSVTGRFTISRDNAKNTVYLQMNSLKPEDTAVYYCAADRYFRQYGRYYYWGQGTQVTVSS” the “polyreactivity (PSR sort gate)” value was “high polyreactivity”. In the case of “QVQLVESGGGLVNAGGSLRLSCAASGRTFRNYAMGWYRQAPGKERELVAANSSGGSTNYADSVKGRFTISRDNAKNTVYLQMNSLKPEDTAVYFCAARQRAYYGPGFDYWGQGTQVTVSS”, the “polyreactivity (PSR sort gate)” value is reported as “low polyreactivity”. With “QVQLVESGGGLVNAGGSLRLSCAASGSIFKYNVMGWYRQAPGKEREMVAAITSRGTSTYYADSVKGRFTISRDNAKNTVYLQMNSLKPEDTAVYYCAADDNYYTFGYWGQGTQVTVSS” the “polyreactivity (PSR sort gate)” value was “high polyreactivity”. For “QVQLVESGGGLVPAGGSLLLSCAASGLTFYVYAMGWYRQAPGKERELVAAISSGGRTYYADSVKGRFTISRDNAKNTVYLQMNSLKPEDTAVYYCAAFRHRNYGYWGQGTQVTVSS”, the “polyreactivity (PSR sort gate)” value was “high polyreactivity”. With “QVQLVESGGGLVPAGGSLRLSCAASGGTFYTYVMGWSSQAPGKERELGAAIAGSGNTYYADSVKGRFTISRDKAKKTVYLQMNSLKPEDTAVYYCAKVLRMYPSGSWYGYWGQGTQVTVSS” the “polyreactivity (PSR sort gate)” value was “high polyreactivity”. For “QVQLVESGGGLVPAGGSLRLSCAASGRIFPQYAMGWYRQAPGKERELVAAISYRGGSTYYADSVKGRFTISRDNAKNTVYSQMNSLKPEDTAVYYCAAKRYNYWGQGTQVTVST”, the “polyreactivity (PSR sort gate)” value was “high polyreactivity”. In the case of “QVQLVESGGGLVPAGGSLRLSCAASGSIFGRNTMGWYRQAPGKERELVAAISSRGTSTYYADSVKGRFTISRDNAKNTVYLQMNSLKPEDTAVYYSAARVYPYNYWGQGTQVTVSS”, the “polyreactivity (PSR sort gate)” value is reported as “high polyreactivity”. For “QVQLVESGGGLVPAGGSLRLSCAASGSTFHYYTMGWYRQAPGKERELVAAISWRGTSTYYADSVKGRFTISRDNAKNTVYLQMNSLKAEDTGVYYCAVRSSPGAGYYYWGQGTQVTVSS”, the “polyreactivity (PSR sort gate)” value was “high polyreactivity”. In the case of “QVQLVESGGGLVPAGGTLRLSCAASGFNFYFNTMGWYRQATGKERELVAAISSGGSTYYADSVKGRFTISRDNAKNTVSFQMNSLKPEDTAVYYCNKDYLQYYPYDYWGHGTQVTVSS”, the “polyreactivity (PSR sort gate)” value is reported as “low polyreactivity”. In the case of “QVQLVESGGGLVPARGSLRLSCAASGRTFGPYAMGWYRQAPGKERELVAAITDTGSGTYYADSVKGRFTISRDNSKNTVYLQMNSLKPVDTAVYYCNAVRKYWGQGTQVTVSS”, the “polyreactivity (PSR sort gate)” value is reported as “low polyreactivity”. For “QVQLVESGGGLVQAAGSLRLICAASGSTFPANAMGWYRQEPGKERELVASITKSGGDTYYADSVKGRFTISRDNAKNSVYVQMNSLKPEDTAVYDCAKDYVNQYGVYKVWANNYNYWGQGTQVTVSS”, the “polyreactivity (PSR sort gate)” value was “low polyreactivity”. For “QVQLVESGGGLVQAAGSLRLSCAASGRIFRRYAMGWYRQAPGKERELVAAITNNGANTYYADSVKGRFTISRDNAKNTVYLQMNSLKPEDTAVYDCARKSYPGRPAYRYDYWGQGTQVTVSS”, the “polyreactivity (PSR sort gate)” value was “high polyreactivity”. In the case of “QVQLVESGGGLVQAAGSLRLSCAASGRTFYDNAMGWYRQAPGKERELVAAITKSGGRTYYVDSVKGRFTISRDNAKNTVYLQMNSLKPEDTAVYYCAASWPNYLYEYWGQGTQVTVSS”, the “polyreactivity (PSR sort gate)” value is reported as “high polyreactivity”. In the case of “QVQLVESGGGLVQAAGSLRLSCAASGRTFYVYDMGWYRQAPGKERELVAVISSSGSTNYADSVKGRFTISGDNAKNSVYLQMNSLKPEDTAVYDCYRRRWYFFSLDYWGQGTQVTVSS”, the “polyreactivity (PSR sort gate)” value is reported as “high polyreactivity”. For “QVQLVESGGGLVQAAGSLRLSCAASGSIFGVNVMGWYRQAPGKERELVAAITTSGGSTYYADSVKGRFTISRDNAKNTVYLQMNSLKPEDTAVYYCAAEVYYPIFLTFYYRGQGTQVTVSS”, the “polyreactivity (PSR sort gate)” value was “high polyreactivity”.
